The values below come from US7226992B1, “Mutant Bcl-2 proteins and uses thereof” (Abbott Laboratories, priority 2000, dated 2007).

The nature of this series: Isoelectric point of Bcl-2 / Bcl-xL proteins. Format: physicochemical, human. The note with it: pH at which the protein carries no net charge. From the text:
As used herein, the term “isoelectric point” (or pI) refers to the pH at which the protein carries no net charge. The isoelectric points of Bcl-2/iso1, Bcl-2/iso2, and Bcl-2/iso3 are about 7.0, 7.2 and 7.2, respectively. The mutant proteins of the present invention have an isoelectric point lower than that of wild-type Bcl-2 and preferably, in the range of 4.5 to about 6.0. More preferably, the isoelectric point of a mutant protein of the invention is from 4.5 to about 5.5. A more preferred isoelectric point is from about 5.0 to about 5.5. A most preferred isoelectric point is 5.0. Means for determining the isoelectric point of a protein are well known to those of ordinary skill in the art.

With “Bcl-2/iso2: wild-type human Bcl-2 protein isoform 2 (SEQ ID NO:4)”, the isoelectric point is given as about 7.2.
